From US20260103748A1 (NAVINCI DIAGNOSTICS, published 2026)

Columns and labels:
AKT2 = target: T1, AKT2 (human, UniProt P31751 1-481); test: multiplex in situ PLA on fixed human breast cancer cells with or without EGF
T1 construct: Endogenous protein in fixed human breast cancer cells (isPLA)
Experimental: (§1) Detection was performed in three imaging rounds with stripping of the specific fluorescently-labelled detection probe between rounds. DAPI staining is shown in each image. Three isPLA reactions are detected per round using either a FITC, Cy3 or Cy5 filter. The isPLA assays target protein phosphorylation-protein or protein-protein interactions.
(§2) In situ PLA probes using the set-up illustrated in FIG. 3 were generated to target protein-protein interactions or protein-protein phosphorylation targets. Each isPLA probe set contains a unique oligonucleotide sequence that is complimentary to a fluorescent-conjugated detection oligonucleotide. The detection oligos are conjugated to either FITC, Cy3 or Cy5.
(§3) Following probe incubation, the padlocks were circularised by ligation, subjected to RCA to generate RCA products and detected with fluorescently labelled detection probes. Detection was performed in three rounds (see FIG. 11). […] Next, the detection oligos were stripped and new detection oligos were added targeting phosphorylated Grb2, phosphorylated Pi3K and phosphorylated STAT3. The same procedure was repeated again to detect phosphorylated Pi3K-PanAKT interaction, STAT5a-JAK2 interaction and JAK1-JAK3 interaction.

Beta-catenin = target: T2, Beta-catenin (UniProt P35222 2-781); test: in situ proximity ligation assay on fixed MCF-7 cells, with blocking oligonucleotide 13+13, RCA and Cy5 detection
T2 construct: Endogenous protein in fixed MCF-7 cells, detected through a primary antibody and oligonucleotide-conjugated secondary antibodies (in situ PLA); also called Beta-caternin
T2 sequence (looked up): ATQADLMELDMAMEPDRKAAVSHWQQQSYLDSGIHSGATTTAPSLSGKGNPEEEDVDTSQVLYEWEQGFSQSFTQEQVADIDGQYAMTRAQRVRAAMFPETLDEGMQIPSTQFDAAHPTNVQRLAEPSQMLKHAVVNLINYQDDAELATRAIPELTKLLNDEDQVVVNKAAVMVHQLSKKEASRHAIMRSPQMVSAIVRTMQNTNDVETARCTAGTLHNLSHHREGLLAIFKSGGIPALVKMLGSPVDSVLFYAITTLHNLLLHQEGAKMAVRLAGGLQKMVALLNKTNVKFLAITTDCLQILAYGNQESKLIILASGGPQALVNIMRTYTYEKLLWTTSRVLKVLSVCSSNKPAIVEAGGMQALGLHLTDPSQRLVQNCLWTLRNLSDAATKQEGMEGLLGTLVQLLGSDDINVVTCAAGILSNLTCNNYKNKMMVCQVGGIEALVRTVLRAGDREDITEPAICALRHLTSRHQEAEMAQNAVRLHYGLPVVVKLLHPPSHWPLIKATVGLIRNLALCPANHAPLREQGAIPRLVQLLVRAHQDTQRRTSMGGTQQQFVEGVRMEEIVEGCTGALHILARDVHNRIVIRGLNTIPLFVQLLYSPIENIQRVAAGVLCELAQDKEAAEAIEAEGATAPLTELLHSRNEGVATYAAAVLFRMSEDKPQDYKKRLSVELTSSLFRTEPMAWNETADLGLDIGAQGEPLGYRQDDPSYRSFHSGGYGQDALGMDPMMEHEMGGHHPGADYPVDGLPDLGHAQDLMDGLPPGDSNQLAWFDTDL

JAK2 = target: T3, JAK2 (human, UniProt O60674 1-1132); test: multiplex in situ PLA on fixed human breast cancer cells with or without EGF
T3 construct: Endogenous protein in fixed human breast cancer cells (isPLA)
T3 sequence (O60674 whole entry): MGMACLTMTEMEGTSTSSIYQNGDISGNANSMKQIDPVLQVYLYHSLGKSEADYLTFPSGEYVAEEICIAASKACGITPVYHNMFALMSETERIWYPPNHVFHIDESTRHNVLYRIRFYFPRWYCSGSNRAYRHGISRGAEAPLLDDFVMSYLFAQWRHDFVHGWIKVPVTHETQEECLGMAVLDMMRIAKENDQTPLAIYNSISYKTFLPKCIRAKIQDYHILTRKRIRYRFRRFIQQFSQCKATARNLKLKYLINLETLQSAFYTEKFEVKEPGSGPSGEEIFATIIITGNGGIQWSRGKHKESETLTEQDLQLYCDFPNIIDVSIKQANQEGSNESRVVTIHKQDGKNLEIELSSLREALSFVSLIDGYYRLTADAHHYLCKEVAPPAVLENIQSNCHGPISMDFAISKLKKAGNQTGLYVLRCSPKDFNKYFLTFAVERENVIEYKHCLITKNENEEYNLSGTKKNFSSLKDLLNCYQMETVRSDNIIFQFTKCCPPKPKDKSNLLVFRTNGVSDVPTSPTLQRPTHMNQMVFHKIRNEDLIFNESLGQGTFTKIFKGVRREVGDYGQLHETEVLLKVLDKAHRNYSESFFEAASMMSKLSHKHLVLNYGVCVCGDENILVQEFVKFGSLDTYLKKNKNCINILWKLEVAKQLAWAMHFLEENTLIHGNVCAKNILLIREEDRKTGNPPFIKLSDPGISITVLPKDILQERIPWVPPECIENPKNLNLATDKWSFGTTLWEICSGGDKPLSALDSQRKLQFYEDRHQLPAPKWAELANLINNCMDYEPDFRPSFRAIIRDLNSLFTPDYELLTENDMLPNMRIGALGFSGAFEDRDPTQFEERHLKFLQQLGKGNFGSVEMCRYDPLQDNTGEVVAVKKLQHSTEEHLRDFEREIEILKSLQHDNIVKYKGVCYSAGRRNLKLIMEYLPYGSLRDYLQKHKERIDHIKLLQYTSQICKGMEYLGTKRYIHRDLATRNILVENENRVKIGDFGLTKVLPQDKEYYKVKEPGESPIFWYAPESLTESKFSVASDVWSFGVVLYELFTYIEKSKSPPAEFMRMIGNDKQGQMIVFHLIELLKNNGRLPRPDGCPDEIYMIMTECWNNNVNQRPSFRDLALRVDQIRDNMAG
Experimental: as §1, §2, §3

T1 sequence (P31751 whole entry): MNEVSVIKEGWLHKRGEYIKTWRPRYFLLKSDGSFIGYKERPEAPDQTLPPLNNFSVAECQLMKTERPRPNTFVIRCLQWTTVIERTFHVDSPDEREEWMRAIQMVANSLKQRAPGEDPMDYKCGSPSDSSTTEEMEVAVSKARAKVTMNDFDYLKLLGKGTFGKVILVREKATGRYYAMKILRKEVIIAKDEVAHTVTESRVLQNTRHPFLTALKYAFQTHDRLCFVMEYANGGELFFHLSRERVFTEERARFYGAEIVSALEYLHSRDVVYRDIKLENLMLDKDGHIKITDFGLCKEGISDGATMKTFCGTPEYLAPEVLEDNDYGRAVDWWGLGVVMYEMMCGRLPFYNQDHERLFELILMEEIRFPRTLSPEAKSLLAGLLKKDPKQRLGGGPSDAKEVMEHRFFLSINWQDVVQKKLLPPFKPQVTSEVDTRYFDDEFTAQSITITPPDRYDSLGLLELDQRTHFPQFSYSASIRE

B1: AKT3 (enzyme, human, UniProt Q9Y243 2-479, looked up)
chain: SDVTIVKEGWVQKRGEYIKNWRPRYFLLKTDGSFIGYKEKPQDVDLPYPLNNFSVAKCQLMKTERPKPNTFIIRCLQWTTVIERTFHVDTPEEREEWTEAIQAVADRLQRQEEERMNCSPTSQIDNIGEEEMDASTTHHKRKTMNDFDYLKLLGKGTFGKVILVREKASGKYYAMKILKKEVIIAKDEVAHTLTESRVLKNTRHPFLTSLKYSFQTKDRLCFVMEYVNGGELFFHLSRERVFSEDRTRFYGAEIVSALDYLHSGKIVYRDLKLENLMLDKDGHIKITDFGLCKEGITDAATMKTFCGTPEYLAPEVLEDNDYGRAVDWWGLGVVMYEMMCGRLPFYNQDHEKLFELILMEDIKFPRTLSSDAKSLLSGLLIKDPNKRLGGGPDDAKEIMRHSFFSGVNWQDVYDKKLVPPFKPQVTSETDTRYFDEEFTAQTITITPPEKYDEDGMDCMDNERRPHFPQFSYSASGRE
notes: Endogenous protein in fixed human breast cancer cells (isPLA)
B1: binds (AKT2).

B2: E-cadherin (other, UniProt P12830 155-882, looked up)
chain: DWVIPPISCPENEKGPFPKNLVQIKSNKDKEGKVFYSITGQGADTPPVGVFIIERETGWLKVTEPLDRERIATYTLFSHAVSSNGNAVEDPMEILITVTDQNDNKPEFTQEVFKGSVMEGALPGTSVMEVTATDADDDVNTYNAAIAYTILSQDPELPDKNMFTINRNTGVISVVTTGLDRESFPTYTLVVQAADLQGEGLSTTATAVITVTDTNDNPPIFNPTTYKGQVPENEANVVITTLKVTDADAPNTPAWEAVYTILNDDGGQFVVTTNPVNNDGILKTAKGLDFEAKQQYILHVAVTNVVPFEVSLTTSTATVTVDVLDVNEAPIFVPPEKRVEVSEDFGVGQEITSYTAQEPDTFMEQKITYRIWRDTANWLEINPDTGAISTRAELDREDFEHVKNSTYTALIIATDNGSPVATGTGTLLLILSDVNDNAPIPEPRTIFFCERNPKPQVINIIDADLPPNTSPFTAELTHGASANWTIQYNDPTQESIILKPKMALEVGDYKINLKLMDNQNKDQVTTLEVSVCDCEGAAGVCRKAQPVEAGLQIPAILGILGGILALLILILLLLLFLRRRAVVKEPLLPPEDDTRDNVYYYDEEGGGEEDQDFDLSQLHRGLDARPEVTRNDVAPTLMSVPRYLPRPANPDEIGNFIDENLKAADTDPTAPPYDSLLVFDYEGSGSEAASLSSLNSSESDKDQDYDYLNEWGNRFKKLADMYGGGEDD
notes: Endogenous protein in fixed MCF-7 cells, detected through a primary antibody and oligonucleotide-conjugated secondary antibodies (in situ PLA)
B2: binds (Beta-catenin).

B3: STAT5a (other, human, UniProt P42229 1-794, looked up)
chain: MAGWIQAQQLQGDALRQMQVLYGQHFPIEVRHYLAQWIESQPWDAIDLDNPQDRAQATQLLEGLVQELQKKAEHQVGEDGFLLKIKLGHYATQLQKTYDRCPLELVRCIRHILYNEQRLVREANNCSSPAGILVDAMSQKHLQINQTFEELRLVTQDTENELKKLQQTQEYFIIQYQESLRIQAQFAQLAQLSPQERLSRETALQQKQVSLEAWLQREAQTLQQYRVELAEKHQKTLQLLRKQQTIILDDELIQWKRRQQLAGNGGPPEGSLDVLQSWCEKLAEIIWQNRQQIRRAEHLCQQLPIPGPVEEMLAEVNATITDIISALVTSTFIIEKQPPQVLKTQTKFAATVRLLVGGKLNVHMNPPQVKATIISEQQAKSLLKNENTRNECSGEILNNCCVMEYHQATGTLSAHFRNMSLKRIKRADRRGAESVTEEKFTVLFESQFSVGSNELVFQVKTLSLPVVVIVHGSQDHNATATVLWDNAFAEPGRVPFAVPDKVLWPQLCEALNMKFKAEVQSNRGLTKENLVFLAQKLFNNSSSHLEDYSGLSVSWSQFNRENLPGWNYTFWQWFDGVMEVLKKHHKPHWNDGAILGFVNKQQAHDLLINKPDGTFLLRFSDSEIGGITIAWKFDSPERNLWNLKPFTTRDFSIRSLADRLGDLSYLIYVFPDRPKDEVFSKYYTPVLAKAVDGYVKPQIKQVVPEFVNASADAGGSSATYMDQAPSPAVCPQAPYNMYPQNPDHVLDQDGEFDLDETMDVARHVEELLRRPMDSLDSRLSPPAGLFTSARGSLS
notes: as for B1
B3: binds (JAK2).
